# In US20260365755 (published 2026):
# Positions count from the first letter of the chain named.
# T1: FcγRIIa (human, UniProt P12318)
# T1 chain: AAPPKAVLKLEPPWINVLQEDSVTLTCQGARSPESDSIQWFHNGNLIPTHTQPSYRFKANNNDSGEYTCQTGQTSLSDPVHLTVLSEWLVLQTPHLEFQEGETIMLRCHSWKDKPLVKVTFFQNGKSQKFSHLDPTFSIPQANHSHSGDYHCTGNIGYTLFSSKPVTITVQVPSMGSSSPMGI
# T2: VEGF165 (human, UniProt P15692)
# T2 chain: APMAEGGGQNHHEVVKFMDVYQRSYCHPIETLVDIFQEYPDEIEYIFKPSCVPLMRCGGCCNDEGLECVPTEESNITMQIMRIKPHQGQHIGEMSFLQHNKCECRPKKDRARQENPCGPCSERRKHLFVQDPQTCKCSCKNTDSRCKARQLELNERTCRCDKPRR
# B1: Q-SBL-127 (antibody)
# chain 1: not shown
# chain 2: not shown
# chain 3: EVQLVESGGGLVQPGGSLRLSCAASGYTFTNYGMNWVRQAPGKGLEWVGWINTYTGEPTYAADFKRRFTFSLDTSKSTAYLQMNSLRAEDTAVYYCAKYPHYYGSSHWYFDVWGQGTLVTVSSASTKGPSVFPLAPSSKSTSGGTAALGCLVKDYFPEPVTVSWNSGALTSGVHTFPAVLQSSGLYSLSSVVTVPSSSLGTQTYICNVNHKPSNTKVDKKVEPKSCDKTHTCPPCPAPELLGGPSVFLFPPKPKDTLMISRTPEVTCVVVDVSHEDPEVKFNWYVDGVEVHNAKTKPREEQYNSTYRVVSVLTVLHQDWLNGKEYKCKVSNKALPAPIEKTISKAKGQPREPQVCTLPPSREEMTKNQVSLWCLVKGFYPSDIAVEWESNGQPENNYKTTPPVLFSDGSFFLYSKLTVDKSRWQQGNVFSCSVMHEALHNHYTQKSLSLSPGK
# chain 4: not shown
# B2: Q-SBL-112 (antibody)
# chain 1: not shown
# chain 2: not shown
# chain 3: B1 chain 3 with E362R, F405D
# chain 4: not shown
# B3: Q-SBL-113 (antibody)
# chain 1: not shown
# chain 2: not shown
# chain 3: B1 chain 3 with E362R, F405D
# chain 4: not shown
# B4: Q-SBL-129 (antibody)
# chain 1: not shown
# chain 2: not shown
# chain 3: B1 chain 3
# chain 4: not shown
# B5: Q-SBL-102 (antibody)
# chain 1: not shown
# chain 2: not shown
# chain 3: B1 chain 3 with F405H
# chain 4: not shown
# B6: Q-SBL-116 (antibody)
# chain 1: not shown
# chain 2: not shown
# chain 3: B1 chain 3 with E362K, F405D
# chain 4: not shown
# B7: Q-SBL-131 (antibody)
# chain 1: not shown
# chain 2: not shown
# chain 3: B1 chain 3
# chain 4: not shown
# B8: Q-SBL-110 (antibody)
# chain 1: not shown
# chain 2: not shown
# chain 3: B1 chain 3 with E362R, F405D
# chain 4: not shown
# B9: Q-SBL-137 (antibody)
# chain 1: not shown
# chain 2: not shown
# chain 3: B1 chain 3 with F405D, K415S
# chain 4: not shown
# B10: Q-SBL-109 (antibody)
# chain 1: not shown
# chain 2: not shown
# chain 3: B1 chain 3 with E362R, F405D
# chain 4: not shown
# B11: Q-SBL-130 (antibody)
# chain 1: not shown
# chain 2: not shown
# chain 3: B1 chain 3
# chain 4: not shown
# Biological target: FcγRIIIa (human, UniProt P08637)
# Assay: BLI
# Sequence of FcγRIIIa (P08637 17-208): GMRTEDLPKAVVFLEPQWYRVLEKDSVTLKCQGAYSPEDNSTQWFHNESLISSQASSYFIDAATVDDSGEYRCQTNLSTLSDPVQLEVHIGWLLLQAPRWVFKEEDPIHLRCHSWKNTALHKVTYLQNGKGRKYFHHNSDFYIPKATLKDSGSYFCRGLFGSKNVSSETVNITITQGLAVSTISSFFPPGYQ
row,Kd,Binder
1,230 nM,B1
2,600 nM,B2
3,600 nM,B3
4,290 nM,B4
5,420 nM,B5
6,370 nM,B6
7,330 nM,B7
8,570 nM,B8
9,380 nM,B9
10,340 nM,B10
11,290 nM,B11

# Biological target: T1, FcγRIIa
# Assay: BLI
row,Kd,Binder
1,1630 nM,B1
2,2020 nM,B2
3,2140 nM,B3
4,1670 nM,B4
5,1700 nM,B5
6,2340 nM,B6
7,1620 nM,B7
8,2290 nM,B8
9,2120 nM,B9
10,2200 nM,B10
11,1720 nM,B11

# Biological target: FcRn (human, UniProt P55899)
# Assay: BLI
row,Kd,Binder
1,750 nM,B1
2,720 nM,B2
3,690 nM,B3
4,700 nM,B4
5,710 nM,B5
6,650 nM,B6
7,670 nM,B7
8,610 nM,B8
9,580 nM,B9
10,640 nM,B10
11,740 nM,B11

# Biological target: C1q (human, UniProt P02745)
# Assay: BLI
# Sequence of C1q (P02745 23-245, chain 1 of 3): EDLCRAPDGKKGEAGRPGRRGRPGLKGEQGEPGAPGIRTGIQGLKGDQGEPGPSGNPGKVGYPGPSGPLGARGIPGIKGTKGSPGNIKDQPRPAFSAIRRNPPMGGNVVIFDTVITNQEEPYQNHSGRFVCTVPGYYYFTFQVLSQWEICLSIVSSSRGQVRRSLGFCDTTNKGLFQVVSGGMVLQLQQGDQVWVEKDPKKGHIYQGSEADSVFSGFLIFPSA
# Sequence of C1q (P02746 28-253, chain 2 of 3, further chain): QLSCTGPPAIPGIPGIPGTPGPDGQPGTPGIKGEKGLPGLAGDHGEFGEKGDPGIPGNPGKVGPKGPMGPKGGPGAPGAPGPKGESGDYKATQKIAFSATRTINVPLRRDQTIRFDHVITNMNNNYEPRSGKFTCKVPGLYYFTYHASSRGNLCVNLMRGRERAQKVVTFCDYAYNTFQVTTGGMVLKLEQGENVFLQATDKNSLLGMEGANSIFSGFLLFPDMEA
# Sequence of C1q (P02747 29-245, chain 3 of 3, further chain): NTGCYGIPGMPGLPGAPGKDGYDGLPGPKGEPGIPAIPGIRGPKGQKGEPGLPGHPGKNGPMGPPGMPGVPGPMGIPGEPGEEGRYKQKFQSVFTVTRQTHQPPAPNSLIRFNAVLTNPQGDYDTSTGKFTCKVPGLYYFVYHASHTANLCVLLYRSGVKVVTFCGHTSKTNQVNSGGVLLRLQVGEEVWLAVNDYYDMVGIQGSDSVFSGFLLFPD
row,Kd,Binder
1,18 nM,B1
2,32 nM,B2
3,36 nM,B3
4,16 nM,B4
5,40 nM,B5
6,33 nM,B6
7,16 nM,B7
8,24 nM,B9
9,28 nM,B10
10,17 nM,B11

# Biological target: T2, VEGF165
# Assay: ELISA
row,EC50,Binder
1,0.149 nM,B2
2,0.154 nM,B3
3,0.17 nM,B4
4,0.168 nM,B8
